One assay addresses 14-3-3σ (sigma) (human). Nature of the assay: SPR; 14-3-3 isoforms amine coupled to a CM5 chip, tandem peptides as analytes (10 µM-10 nM for PEAK3 tandem-pS69, 20 µM-20 nM for all others); Biacore S200, 20 °C, HBS-TP; steady state, 1:1 model.
In assay [1] the target is 14-3-3η (residues 1-246) (human). The assay is described as above.
For assay [2], the target named is 14-3-3γ (residues 1-247) (human). The description is as above.
Assay [3] concerns the target T1, PEAK3^FL from insect cells, phosphorylated by Src (human), Q6ZS72.
T1 chain: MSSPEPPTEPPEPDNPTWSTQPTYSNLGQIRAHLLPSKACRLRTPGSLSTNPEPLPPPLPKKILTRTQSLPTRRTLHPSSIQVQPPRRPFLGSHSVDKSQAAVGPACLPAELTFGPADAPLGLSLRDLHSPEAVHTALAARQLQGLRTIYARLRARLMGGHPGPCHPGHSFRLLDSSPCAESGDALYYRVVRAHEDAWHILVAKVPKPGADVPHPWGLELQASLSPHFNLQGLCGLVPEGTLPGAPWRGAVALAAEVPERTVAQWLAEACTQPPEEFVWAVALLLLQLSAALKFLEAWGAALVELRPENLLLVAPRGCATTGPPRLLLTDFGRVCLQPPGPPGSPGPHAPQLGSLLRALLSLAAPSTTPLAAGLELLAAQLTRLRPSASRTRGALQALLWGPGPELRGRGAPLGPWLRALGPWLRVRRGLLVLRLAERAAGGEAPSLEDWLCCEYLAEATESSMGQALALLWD
Nature of the assay: SPR. The settings on record: natural protein, biotin (EZ-Link NHS-PEG4-Biotin) where immobilised for SPR, phosphotyrosine at 24 (by Src in vitro, MS/MS), phosphoserine at 69, remark: other sources report otherwise.

The target of assay [4] is T2, PEAK3^FL from E. coli, phosphorylated by Src (human), Q6ZS72.
T2 chain: T1 chain
Nature of the assay: SPR. The settings on record: natural protein, biotin (EZ-Link NHS-PEG4-Biotin) where immobilised for SPR, phosphotyrosine at 24 (by Src in vitro; the MS/MS was told for PEAK3^FL in general), remark: other sources report otherwise.

The target of assay [5] is T3, full length PEAK3 from insect cells (PEAK3^FL, S69 phosphorylated) (human), Q6ZS72.
T3 chain: T1 chain
Nature of the assay: SPR. The settings on record: natural protein, biotin (EZ-Link NHS-PEG4-Biotin) where immobilised for SPR, phosphoserine at 69, remark: other sources report otherwise.

Assay [6] deals with T4, full length PEAK3 (PEAK3^FL, residues 1-473), from E. coli, phosphorylated by Src (human), Q6ZS72.
T4 chain: T1 chain
Nature of the assay: SPR; biotinylated PEAK proteins (with or without Src phosphorylation) captured with a biotin CAPture kit; Grb2 FL, Grb2 SH2, CrkII SH2, CrkII FL monomer or dimer as analytes; Biacore 8K+, 20 °C, HBS-TP with NaCl raised to 500 mM; 1 M NaCl regeneration; steady state. The settings on record: remark: other sources report otherwise.

Assay [7] concerns the target T5, full length PEAK3 (PEAK3^FL, residues 1-473), from E. coli (human), Q6ZS72.
T5 chain: T1 chain
The description is as above. The settings on record: remark: other sources report otherwise.

Assay [8] has as its target T6, full length PEAK3 (PEAK3^FL, residues 1-473), from insect cells, phosphorylated by Src (human), Q6ZS72.
T6 chain: T1 chain
Described as above. The settings on record: remark: other sources report otherwise.

The target of assay [9] is full length CrkII, dimer (CrkIIFL dimer) (human), P46108. The assay is described as follows: SEC-MALS; Superdex 200 Increase 10/300 GL, 20 mM HEPES pH 7.5, 150 mM NaCl, 1 mM TCEP, 0.5 ml/min. The settings on record: remark: other sources report otherwise.

Non-standard residues stand in square brackets, D forms with d. pT = C[C@@H](OP(=O)(O)O)[C@H](N)C(=O)O

Chain of 14-3-3σ (sigma) (human) (A8K1N0 whole entry, the tested form may be a part, canonical isoform): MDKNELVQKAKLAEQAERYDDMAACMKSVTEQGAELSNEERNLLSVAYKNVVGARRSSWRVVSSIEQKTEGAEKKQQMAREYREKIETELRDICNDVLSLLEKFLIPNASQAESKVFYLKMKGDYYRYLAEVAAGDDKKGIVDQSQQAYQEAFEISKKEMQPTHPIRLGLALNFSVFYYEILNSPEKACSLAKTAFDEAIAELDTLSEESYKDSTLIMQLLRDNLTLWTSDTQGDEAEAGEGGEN

B1: PEAK1 tandem-pT1165 peptide (residues 1152-1171) (peptide)
peptide: Ac-PPPLPKKMIIRAN[pT]EPISKD-NH2
B1: the Kd came to 9.7 µM with 14-3-3σ (sigma) (human), 2.56 µM in [1] and 1.77 µM in [2].

B2: PEAK2 tandem peptide, non-phosphorylated (residues 812-831) (peptide)
peptide: Ac-PPPLPQKKIVSRAASSPDGF-NH2
Regarding B2, in the assay with 14-3-3σ (sigma) (human), the Kd is > 100 µM.

B3: full length CrkII, dimer (CrkII^FL dimer), P46108-1 1-304 (natural protein)
chain: MAGNFDSEERSSWYWGRLSRQEAVALLQGQRHGVFLVRDSSTSPGDYVLSVSENSRVSHYIINSSGPRPPVPPSPAQPPPGVSPSRLRIGDQEFDSLPALLEFYKIHYLDTTTLIEPVSRSRQGSGVILRQEEAEYVRALFDFNGNDEEDLPFKKGDILRIRDKPEEQWWNAEDSEGKRGMIPVPYVEKYRPASASVSALIGGNQEGSHPQPLGGPEPGPYAQPSVNTPLPNLQNGPIYARVIQKRVPNAYDKTALALEVGELVKVTKINVSGQWEGECNGKRGHFPFTHVRLLDQQNPDEDFS
As for B3, the Kd in assay [3] is 2.2 µM; in assay [4] it was 2.1 µM; in assay [5] it was 2.4 µM; in assay [6] it was 2.11 µM; in assay [7], 7.6 µM; in assay [8] it was 2.18 µM.

B4: full length CrkII, dimer (CrkIIFL dimer), P46108-1 1-304 (natural protein)
chain: B3 chain
modifications: here or on the partner: biotin (EZ-Link NHS-PEG4-Biotin) in the SPR experiment only; biotin (EZ-Link NHS-PEG4-Biotin) in the SPR experiment only
B4 had a stoichiometry N in assay [9] of 2.

B5: full length CrkII, monomer (CrkII^FL monomer), P46108-1 1-304 (natural protein)
chain: B3 chain
With B5, the Kd in [4] came out at 2.6 µM; in assay [5], 12.8 µM; in [7], 14.1 µM; in [8], 2.7 µM.

B6: PEAK1 tandem peptide, non-phosphorylated (residues 1152-1171) (peptide)
peptide: Ac-PPPLPKKMIIRANTEPISKD-NH2
In the case of B6, the dissociation constant (Kd) (with 14-3-3σ (sigma) (human); in assay [1]; in assay [2]) was > 100 µM each time.

The values above are taken from article PMC10279719.
